Target: T1, recombinant UBE2D1-His (UniProt P51668 1-147)
T1 construct: UBE2D1 (UbcH5a), E2 ubiquitin conjugating enzyme; The methods of the pull-down call it UBE2D-His; also called UBE2D-His; source: E. coli, recombinant (pET29a (+) or pGEX4T1 vector); purification not described; not shown: His, C-terminal, kept
Assay: pull-down; GST-RING (8 ug) on Glutathione Sepharose beads with recombinant UBE2D-His (5 ug) or immunoprecipitated FLAG-CNPY2 (5 or 15 ug), 4 C, 30 min; 50 mM Tris-HCl pH 7.5, 150 mM NaCl, 5 mM EDTA, 0.5% NP40; immunoblotting
Settings: both partners purified

T1 sequence (P51668 whole entry): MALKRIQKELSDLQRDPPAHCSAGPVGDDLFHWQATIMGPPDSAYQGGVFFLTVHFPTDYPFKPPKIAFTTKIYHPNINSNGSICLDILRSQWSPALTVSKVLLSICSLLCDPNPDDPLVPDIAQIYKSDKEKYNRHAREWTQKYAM

B1: recombinant GST-fused RING domain of MYLIP (344-445 a.a.) (domain or fragment, UniProt Q8WY64 344-445, looked up)
chain: QSPSHSPLKSSESSMNCSSCEGLSCQQTRVLQEKLRKLKEAMLCMVCCEEEINSTFCPCGHTVCCESCAAQLQSCPVCRSRVEHVQHVYLPTHTSLLNLTVI
notes: MYLIP, RING domain, residues 344-445; Held on Glutathione Sepharose beads in the pull-down; pGEX4T1 vector); also called GST-RING; MYLIP RING; source: E. coli BL21 (DE3), purified (Glutathione Sepharose, eluted with 40 mM reduced glutathione); not shown: GST, N-terminal, kept
binding result: binds

— article PMC5915145, “CNPY2 inhibits MYLIP-mediated AR protein degradation in prostate cancer cells” (Oncotarget, 2018)
